According to IntAct's records for PubMed 12629052:

Molecular target: fkb1a_human FKBP1A (UniProt P62942)
Sequence (P62942 whole entry): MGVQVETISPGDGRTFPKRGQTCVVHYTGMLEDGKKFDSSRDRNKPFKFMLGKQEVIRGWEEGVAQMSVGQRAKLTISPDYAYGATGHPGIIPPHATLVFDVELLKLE

effect of a mutation on the interaction: disrupting interaction
Substance: Ryanodine receptor 1 (Oryctolagus cuniculus (Rabbit)), P11716 S2843D
